Test results taken from patent US20250290037.

Biological target: 488-labeled fibrillized-Aβ (1-42) (Anaspec), P05067
Sequence (P05067 whole entry, looked up, tested part not stated): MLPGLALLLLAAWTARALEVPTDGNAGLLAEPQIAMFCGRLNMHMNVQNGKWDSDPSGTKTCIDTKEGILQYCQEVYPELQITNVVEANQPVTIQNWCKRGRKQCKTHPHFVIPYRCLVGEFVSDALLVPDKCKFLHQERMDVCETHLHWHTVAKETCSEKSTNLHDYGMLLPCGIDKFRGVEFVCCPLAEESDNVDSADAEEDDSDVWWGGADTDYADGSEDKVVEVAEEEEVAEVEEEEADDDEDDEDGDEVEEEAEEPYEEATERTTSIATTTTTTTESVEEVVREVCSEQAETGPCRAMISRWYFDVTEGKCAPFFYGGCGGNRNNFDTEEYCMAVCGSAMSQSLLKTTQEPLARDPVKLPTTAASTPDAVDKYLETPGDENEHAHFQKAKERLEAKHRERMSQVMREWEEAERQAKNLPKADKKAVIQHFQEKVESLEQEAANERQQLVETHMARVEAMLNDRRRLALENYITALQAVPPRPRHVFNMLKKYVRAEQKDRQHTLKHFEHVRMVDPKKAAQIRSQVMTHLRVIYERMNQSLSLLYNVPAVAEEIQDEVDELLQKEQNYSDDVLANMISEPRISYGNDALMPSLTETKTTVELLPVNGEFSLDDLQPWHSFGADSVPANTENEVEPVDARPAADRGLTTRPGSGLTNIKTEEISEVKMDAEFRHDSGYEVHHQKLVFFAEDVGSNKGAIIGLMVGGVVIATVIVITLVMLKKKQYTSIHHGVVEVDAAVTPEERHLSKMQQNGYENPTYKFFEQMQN

Protein | Aβ phagocytosis over time (slope of internalized fluorescent Aβ signal)
membrane-bound Neprilysin (full-length Neprilysin; includes transmembrane and cytoplasmic domains) (protein) GKSESQMDITDINTPKPKKKQRWTPLEISLSVLVLLLTIIAVTMIALYATYDDGICKSSDCIKSAARLIQNMDATTEPCTDFFKYACGGWLKRNVIPETSSRYGNFDILRDELEVVLKDVLQEPKTEDIVAVQKAKALYRSCINESAIDSRGGEPLLKLLPDIYGWPVATENWEQKYGASWTAEKAIAQLNSKYGKKVLINLFVGTDDKNSVNHVIHIDQPRLGLPSRDYYECTGIYKEACTAYVDFMISVARLIRQEERLPIDENQLALEMNKVMELEKEIANATAKPEDRNDPMLLYNKMTLAQIQNNFSLEINGKPFSWLNFTNEIMSTVNISITNEEDVVVYAPEYLTKLKPILTKYSARDLQNLMSWRFIMDLVSSLSRTYKESRNAFRKALYGTTSETATWRRCANYVNGNMENAVGRLYVEAAFAGESKHVVEDLIAQIREVFIQTLDDLTWMDAETKKRAEEKALAIKERIGYPDDIVSNDNKLNNEYLELNYKEDEYFENIIQNLKFSQSKQLKKLREKVDKDEWISGAAVVNAFYSSGRNQIVFPAGILQPPFFSAQQSNSLNYGGIGMVIGHEITHGFDDNGRNFNKDGDLVDWWTQQSASNFKEQSQCMVYQYGNFSWDLAGGQHLNGINTLGENIADNGGLGQAYRAYQNYIKKNGEEKLLPGLDLNHKQLFFLNFAQVWCGTYRPEYAVNSIKTDVHSPGNFRIIGTLQNSAEFSEAFHCRKNSYMNPEKKCRVW | Decreasing slope over time, as observed in sNEP and NEP data, indicates increasing degradation of Aβ following internalization
secreted Neprilysin (lacks transmembrane and cytoplasmic domains; secretion signal at N-terminus) (protein) YDDGICKSSDCIKSAARLIQNMDATTEPCTDFFKYACGGWLKRNVIPETSSRYGNFDILRDELEVVLKDVLQEPKTEDIVAVQKAKALYRSCINESAIDSRGGEPLLKLLPDIYGWPVATENWEQKYGASWTAEKAIAQLNSKYGKKVLINLFVGTDDKNSVNHVIHIDQPRLGLPSRDYYECTGIYKEACTAYVDFMISVARLIRQEERLPIDENQLALEMNKVMELEKEIANATAKPEDRNDPMLLYNKMTLAQIQNNFSLEINGKPFSWLNFTNEIMSTVNISITNEEDVVVYAPEYLTKLKPILTKYSARDLQNLMSWRFIMDLVSSLSRTYKESRNAFRKALYGTTSETATWRRCANYVNGNMENAVGRLYVEAAFAGESKHVVEDLIAQIREVFIQTLDDLTWMDAETKKRAEEKALAIKERIGYPDDIVSNDNKLNNEYLELNYKEDEYFENIIQNLKFSQSKQLKKLREKVDKDEWISGAAVVNAFYSSGRNQIVFPAGILQPPFFSAQQSNSLNYGGIGMVIGHEITHGFDDNGRNFNKDGDLVDWWTQQSASNFKEQSQCMVYQYGNFSWDLAGGQHLNGINTLGENIADNGGLGQAYRAYQNYIKKNGEEKLLPGLDLNHKQLFFLNFAQVWCGTYRPEYAVNSIKTDVHSPGNFRIIGTLQNSAEFSEAFHCRKNSYMNPEKKCRVW | Decreasing slope over time, as observed in sNEP and NEP data, indicates increasing degradation of Aβ following internalization
